# Source: patent US20100215655A1 (CHENGDU KANGHONG BIOTECHNOLOGIES, published 2010)
# B1: FP5′ (FLTd2-KDRd3,4,5-Fc) (Fc fusion, human, not shown: a dimerising Fc or GST)
# chain: PFVEMYSEIPEIIHMTEGRELVIPCRVTSPNITVTLKKFPLDTLIPDGKRIIWDSRKGFIISNATYKEIGLLTCEATVNGHLYKTNYLTHRQTVVLSPSHGIELSVGEKLVLNCTARTELNVGIDFNWEYPSSKHQHKKLVNRDLKTQSGSEMKKFLSTLTIDGVTRSDQGLYTCAASSGLMTKKNSTFVRVHEKFVAFGSGMESLVEATVGERVRIPAKYLGYPPPEIKWYKNGIPLESNHTIKAGHVLTIMEVSERDTGNYTVILTNPIKSEKQSHVVSLVVYVPPQIGEKSLISPVDSYQYGTTQTLTCTVYAIPPPHHIHWYWQLEEECANEPSQAVSVTNPYPCEEWRSVEDFQGGNKIEVNKNQFALIEGKNKTVSTLVIQAANVSALYKCEAVNKVGRGERVISFHVT
# notes: domain: 5th Ig-like domain of KDR; Expressed in 293 cells
# B2: FP4′ (FLTd2-KDRd3-FLTd4-Fc) (Fc fusion, not shown: a dimerising Fc or GST)
# chain: PFVEMYSEIPEIIHMTEGRELVIPCRVTSPNITVTLKKFPLDTLIPDGKRIIWDSRKGFIISNATYKEIGLLTCEATVNGHLYKTNYLTHRQTVVLSPSHGIELSVGEKLVLNCTARTELNVGIDFNWEYPSSKHQHKKLVNRDLKTQSGSEMKKFLSTLTIDGVTRSDQGLYTCAASSGLMTKKNSTFVRVHEKFITVKHRKQQVLETVAGKRSYRLSMKVKAFPSPEVVWLKDGLPATEKSARYLTRGYSLIIKDVTEEDAGNYTILLSIKQSNVFKNLTATLIVNVKP
# notes: Expressed in 293 cells
# B3: FP6′ (FLTd2-KDRd3-FLTd4,5-Fc) (Fc fusion, human, not shown: a dimerising Fc or GST)
# chain: PFVEMYSEIPEIIHMTEGRELVIPCRVTSPNITVTLKKFPLDTLIPDGKRIIWDSRKGFIISNATYKEIGLLTCEATVNGHLYKTNYLTHRQTVVLSPSHGIELSVGEKLVLNCTARTELNVGIDFNWEYPSSKHQHKKLVNRDLKTQSGSEMKKFLSTLTIDGVTRSDQGLYTCAASSGLMTKKNSTFVRVHEKFITVKHRKQQVLETVAGKRSYRLSMKVKAFPSPEVVWLKDGLPATEKSARYLTRGYSLIIKDVTEEDAGNYTILLSIKQSNVFKNLTATLIVNVKPQIYEKAVSSFPDPALYPLGSRQILTCTAYGIPQPTIKWFWHPCNHNHSEARCDFCSNNEESFILDADSNMGNRIESITQRMAIIEGKNKMASTLVVADSRISGIYICIASNKVGTVGRNISFYIT
# notes: domain: 5th Ig-like domain of FLT-1; Expressed in 293 cells; also called PF6′
# B4: FP2′ (KDRd1-FLTd2-KDRd3-Fc) (Fc fusion, not shown: a dimerising Fc or GST)
# chain: PRLSIQKDILTIKANTTLQITCRGQRDLDWLWPNNQSGSEQRVEVTECSDGLFCKTLTIPKVIGNDTGAYKCFYRETDLASVIYVYPFVEMYSEIPEIIHMTEGRELVIPCRVTSPNITVTLKKFPLDTLIPDGKRIIWDSRKGFIISNATYKEIGLLTCEATVNGHLYKTNYLTHRQTVVLSPSHGIELSVGEKLVLNCTARTELNVGIDFNWEYPSSKHQHKKLVNRDLKTQSGSEMKKFLSTLTIDGVTRSDQGLYTCAASSGLMTKKNSTFVRVHEK
# notes: Expressed in 293 cells
# B5: FP1′ (FLTd2-KDRd3-Fc), chimeric protein of the prior art (Fc fusion, not shown: a dimerising Fc or GST)
# chain: PFVEMYSEIPEIIHMTEGRELVIPCRVTSPNITVTLKKFPLDTLIPDGKRIIWDSRKGFIISNATYKEIGLLTCEATVNGHLYKTNYLTHRQTVVLSPSHGIELSVGEKLVLNCTARTELNVGIDFNWEYPSSKHQHKKLVNRDLKTQSGSEMKKFLSTLTIDGVTRSDQGLYTCAASSGLMTKKNSTFVRVHEK
# Target: T1, recombinant VEGF (vascular endothelial cell growth factor) (UniProt P15692-4 27-191, limits assumed)
# T1 construct: also called recombinant VEGF proteins (Chemicom)
# T1 sequence (P15692 other isoform, or with tags, fused parts or gaps limits assumed): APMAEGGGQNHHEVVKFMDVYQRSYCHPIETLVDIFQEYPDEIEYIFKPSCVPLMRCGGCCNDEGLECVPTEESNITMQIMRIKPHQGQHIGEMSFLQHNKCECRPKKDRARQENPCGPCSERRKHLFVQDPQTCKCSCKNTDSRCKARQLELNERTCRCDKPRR
# Test: ELISA, VEGF coated on plate, anti-human Ig-HRP detection
# Protocol: Affinities of the chimeric proteins to VEGF were determined by the VEGF binding assay in the present invention. Firstly, recombinant VEGF proteins (Chemicom) were coated in a 96-well ELISA plate, and non-specific protein binding sites of the plate were then blocked using 5% milk solution. Secondly, different concentrations of various chimeric proteins were added into each well, and incubated for 2 hours at 37° C. After washing, rabbit anti-human Ig-HRP (Sigma) was added into each well, and finally colorimetric enzyme substrates were added to the plate. The absorption OD readings were recorded with the use of an ELISA plate reader. A higher OD value indicated a stronger binding affinity of the chimeric proteins to VEGF.
row,concentration at which binding was detectable,Binder
1,1 µg/mL,B1
2,1 µg/mL,B2
3,1 µg/mL,B3
4,1 µg/mL,B4

# Target: T1, recombinant VEGF (vascular endothelial …)
# Test: cell-based or functional assay
row,IC50 of inhibition of VEGF-induced HUVEC cell growth,Binder
1,5 to 8 ng/mL,B1
2,5 to 8 ng/mL,B2
3,5 to 8 ng/mL,B3
4,5 to 8 ng/mL,B4
5,~12 ng/mL,B5
